Numbered stars: 1 amine (or outer) side, 2 acyl side, 3 side chain; on linkers, the order of the positions; unused ones are H or OH. Square brackets hold non-standard residues; d marks the D form. Primed or numbered codes have the meaning given here. Ends that are not written are not given here. * marks the point of attachment. ξ: configuration not given here. Pro(trans-4-NH2) = O=C([C@@H]1C[C@@H](N[*:3])CN1[*:1])[*:2]; Sni = (S)-nipecotic acid, O=C([C@H]1CCCN([*:1])C1)[*:2]; Pro(trans-4-Ph) = O=C(O)[C@@H]1C[C@@H](c2ccccc2)CN1; Tyr(3-I) = N[C@@H](Cc1ccc(O)c(I)c1)C(=O)O; Cpp = rac-(3R,4S)-cis-methanoproline; NMeR = CN[C@@H](CCCNC(=N)N)C(=O)O; dDap(Me2) = CN(C)C[C@@H](N)C(=O)O; Hyp = O=C(O)[C@@H]1C[C@@H](O)CN1; Gly(cPr) = N[C@H](C(=O)O)C1CC1; Aoc(2) = CCCCCC[C@H](N)C(=O)O; NMeL = CN[C@@H](CC(C)C)C(=O)O; Chg = N[C@H](C(=O)O)C1CCCCC1; Tle = CC(C)(C)[C@H](N)C(=O)O; ξαMeL = CC(C)CC(C)(N)C(=O)O; Ac6c = NC1(C(=O)O)CCCCC1; Octanoyl = CCCCCCCC(=O)*; Thz = O=C(O)[C@@H]1CSCN1; Api = NC1(C(=O)O)CCNCC1; Pip′ = not defined here; dAze = O=C(O)[C@H]1CCN1; Deg = CCC(N)(CC)C(=O)O; Oct = not defined here; GABA = NCCCC(=O)O
T1: natriuretic peptide receptor-B (human)
T1 chain: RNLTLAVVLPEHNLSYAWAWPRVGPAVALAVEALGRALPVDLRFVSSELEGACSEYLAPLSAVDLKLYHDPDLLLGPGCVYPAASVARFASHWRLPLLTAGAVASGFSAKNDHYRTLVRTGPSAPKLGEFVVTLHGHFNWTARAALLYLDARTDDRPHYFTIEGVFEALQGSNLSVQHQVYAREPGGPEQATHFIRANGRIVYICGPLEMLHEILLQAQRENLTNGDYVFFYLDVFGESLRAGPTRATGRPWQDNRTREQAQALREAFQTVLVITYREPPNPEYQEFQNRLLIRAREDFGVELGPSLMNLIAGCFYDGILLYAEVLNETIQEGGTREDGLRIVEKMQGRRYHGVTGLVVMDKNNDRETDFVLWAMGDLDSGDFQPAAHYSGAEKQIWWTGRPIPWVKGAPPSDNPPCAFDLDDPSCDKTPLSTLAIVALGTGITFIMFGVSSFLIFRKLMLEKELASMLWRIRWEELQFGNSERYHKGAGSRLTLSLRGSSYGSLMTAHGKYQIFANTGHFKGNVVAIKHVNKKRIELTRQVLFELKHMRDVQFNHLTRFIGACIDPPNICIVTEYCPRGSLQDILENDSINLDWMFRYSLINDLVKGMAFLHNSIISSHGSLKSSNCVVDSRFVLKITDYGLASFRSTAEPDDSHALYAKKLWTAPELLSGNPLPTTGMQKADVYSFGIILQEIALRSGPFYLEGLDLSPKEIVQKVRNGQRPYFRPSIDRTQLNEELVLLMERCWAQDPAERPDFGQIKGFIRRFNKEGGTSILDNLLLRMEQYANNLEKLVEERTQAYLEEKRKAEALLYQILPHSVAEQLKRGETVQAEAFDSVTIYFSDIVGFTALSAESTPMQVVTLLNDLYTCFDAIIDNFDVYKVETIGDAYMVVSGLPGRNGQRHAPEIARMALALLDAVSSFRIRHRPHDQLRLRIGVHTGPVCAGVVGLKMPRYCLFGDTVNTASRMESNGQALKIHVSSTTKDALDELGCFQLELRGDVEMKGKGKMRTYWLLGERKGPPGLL

B1: JAL-0654 (peptide)
peptide: XXFGLKLDRI
HELM: PEPTIDE1{[CCCCCC(=O)[*:2]].[O=C(C1CCCN([*:1])C1)[*:2]].F.G.L.K.L.D.R.I.[am]}$$$$V2.0
SMILES: CCCCCC(=O)N1CCCC(C(=O)N[C@@H](Cc2ccccc2)C(=O)NCC(=O)N[C@@H](CC(C)C)C(=O)N[C@@H](CCCCN)C(=O)N[C@@H](CC(C)C)C(=O)N[C@@H](CC(=O)O)C(=O)N[C@@H](CCCNC(=N)N)C(=O)N[C@H](C(N)=O)[C@@H](C)CC)C1
B2: JAL-0653 (peptide)
peptide: XXFGLKLDRI
HELM: PEPTIDE1{[CCCCCC(=O)[*:2]].[O=C([C@H]1CC[C@H](CN[*:1])CC1)[*:2]].F.G.L.K.L.D.R.I.[am]}$$$$V2.0
SMILES: CCCCCC(=O)NC[C@H]1CC[C@H](C(=O)N[C@@H](Cc2ccccc2)C(=O)NCC(=O)N[C@@H](CC(C)C)C(=O)N[C@@H](CCCCN)C(=O)N[C@@H](CC(C)C)C(=O)N[C@@H](CC(=O)O)C(=O)N[C@@H](CCCNC(=N)N)C(=O)N[C@H](C(N)=O)[C@@H](C)CC)CC1
B3: JAL-1429 (peptide)
peptide: [Oct][Sni]F[dDap(Me2)]L[Hyp][NMeL]DRI-NH2
modifications: reading uncertain; also: printed as Oct-Sni-Phe-dap(Me2)-Leu-Hyp-Nml-Asp-Arg-Ile-NH2
B4: JAL-0652 (peptide)
peptide: XXFGLKLDRI
HELM: PEPTIDE1{[CCCCCC(=O)[*:2]].[O=C(Cn1cccc(N[*:1])c1=O)[*:2]].F.G.L.K.L.D.R.I.[am]}$$$$V2.0
SMILES: CCCCCC(=O)Nc1cccn(CC(=O)N[C@@H](Cc2ccccc2)C(=O)NCC(=O)N[C@@H](CC(C)C)C(=O)N[C@@H](CCCCN)C(=O)N[C@@H](CC(C)C)C(=O)N[C@@H](CC(=O)O)C(=O)N[C@@H](CCCNC(=N)N)C(=O)N[C@H](C(N)=O)[C@@H](C)CC)c1=O

Target: T1, natriuretic peptide receptor-B
Test: cell-based or functional assay

EC50 group, cGMP in GTM-3 cells | Binder
≤ 15 µM | Octanoyl-AFLL[Hyp][NMeL][Tle]RI-NH2 (also: lower-case ala, leu: meaning not given here) [JAL-1420]
≤ 15 µM | Ac-[Tyr(3-I)][GABA][Aoc(2)]AFRL[Hyp][NMeL]DRI-NH2 (also: lower-case ala, arg: meaning not given here) [JAL-1432]
≤ 5 µM | Octanoyl-AFLL[Hyp][NMeL]D[Thz]I-NH2 (also: lower-case ala, leu: meaning not given here) [JAL-1442]
≤ 5 µM | Octanoyl-AFLL[Hyp][NMeL]D[dAze]I-NH2 (also: lower-case ala, leu: meaning not given here) [JAL-1437]
≤ 1 µM | Octanoyl-AFLL[Hyp][NMeL]D[NMeR]I-NH2 (also: lower-case ala, leu: meaning not given here) [JAL-1417]
≤ 5 µM | Octanoyl-AFLL[Hyp][NMeL]DPI-NH2 (also: lower-case ala, leu: meaning not given here) [JAL-1418]
≤ 15 µM | B1
≤ 15 µM | Octanoyl-[dA]F[dL]L[Hyp][NMeL]D[Ac6c]I-NH2 [JAL-1457]
≤ 15 µM | B2
≤ 5 µM | Octanoyl-AFLL[Hyp][NMeL]D[Cpp]I-NH2 (also: lower-case ala, leu: meaning not given here) [JAL-1443]
≤ 1 µM | [Tyr(3-I)][Aoc(2)]AFRL[Hyp][NMeL]DRI-NH2 (also: lower-case ala, arg: meaning not given here) [JAL-1430]
≤ 5 µM | Octanoyl-AF[Api]L[Hyp][NMeL]DPI-NH2 (also: lower-case ala: meaning not given here) [JAL-1451]
≤ 15 µM | Octanoyl-AFLL[Hyp][NMeL][Chg]RI-NH2 (also: lower-case ala, leu: meaning not given here) [JAL-1421]
≤ 5 µM | Octanoyl-[Sni]FLL[Hyp][NMeL]DPI-NH2 (also: lower-case leu: meaning not given here) [JAL-1436]
≤ 1 µM | Octanoyl-[dA]F[Api]L[Pro(trans-4-NH2)][NMeL]DPI-NH2 [JAL-1452]
≤ 5 µM | Octanoyl-AFLL[Pro(trans-4-NH2)][NMeL]DPI-NH2 (also: lower-case ala, leu: meaning not given here) [JAL-1450]

EC50 group, cGMP in GTM-3 cells | Binder
≤ 5 µM | Octanoyl-AFLL[Hyp][NMeL]D[Pip′]I-NH2 (also: lower-case ala, leu: meaning not given here) [JAL-1438]
≤ 5 µM | Octanoyl-[dA]F[dL]L[Hyp][NMeL]D[Api]I-NH2 [JAL-1458]
≤ 15 µM | Octanoyl-AFLL[Hyp][NMeL][Gly(cPr)]RI-NH2 (also: lower-case ala, leu: meaning not given here) [JAL-1424]
≤ 1 µM | Octanoyl-[dA]F[dDap(Me2)]L[Pro(trans-4-NH2)][NMeL]DPI-NH2 [JAL-1453]
≤ 15 µM | Octanoyl-[dA]F[dL]L[Hyp][NMeL]D[Pro(trans-4-Ph)]I-NH2 [JAL-1456]
≤ 1 µM | Octanoyl-[dA]F[Ac6c]L[Pro(trans-4-NH2)][NMeL]DRI-NH2 [JAL-1454]
≤ 1 µM | Octanoyl-AFLL[Hyp][NMeL]DR[ξαMeL]-NH2 (also: lower-case ala, leu: meaning not given here) [JAL-1414]
≤ 15 µM | Octanoyl-[dA]F[dL]L[Hyp][NMeL]D[Pro(trans-4-NH2)]I-NH2 [JAL-1459]
≤ 1 µM | Octanoyl-AFLL[Hyp][NMeL]DR[Deg]-NH2 (also: lower-case ala, leu: meaning not given here) [JAL-1416]
≤ 1 µM | B3
≤ 15 µM | [Tyr(3-I)][GABA][Aoc(2)]AFRL[Hyp][NMeL]DRI-NH2 (also: lower-case ala, arg: meaning not given here) [JAL-1431]
≤ 15 µM | B4
≤ 5 µM | Octanoyl-AF[Api]L[Hyp][NMeL]DPI-NH2 (also: lower-case ala: meaning not given here) [JAL-1435]
≤ 15 µM | Octanoyl-AFLL[Hyp][NMeL]D[Hyp]I-NH2 (also: lower-case ala, leu: meaning not given here) [JAL-1441]
≤ 5 µM | Octanoyl-AFRL[Hyp][NMeL]DPI-NH2 (also: lower-case ala, arg: meaning not given here) [JAL-1434]

Source: patent US9187525B2, “Methods of treating ophthalmic diseases using NPR-B agonists” (Shire Orphan Therapies GmbH, dated 2015)
